# System: Escherichia coli TOP10
# Assay: shrunken log2 fold change of peptide-encoding DNA abundance (4.5 h post-induction vs induction); higher = less antimicrobial activity (less host growth inhibition)
# Conditions: time post-induction: 4.5 h; library: site-saturation at positions 5, 18, 19, 20
# 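Also: peptides expressed intracellularly from a pBAD plasmid library in pooled LB shake-flask culture, induced with 0.3% L-arabinose, DNA abundance read by NGS, three biological replicates, DESeq2 with apeglm shrinkage.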
row,Sequence,shrunken log2 fold change
1,RRIRIRPPRLPRPRPRPNNFPRP,-0.388
2,RRIRVRPPRLPRPRPRPCIMPRP,-0.514
3,RRIRVRPPRLPRPRPRPGAVPRP,0.481
4,RRIRSRPPRLPRPRPRPTLEPRP,0.474
5,RRIRERPPRLPRPRPRPVHNPRP,-1.53
6,RRIRLRPPRLPRPRPRPVSNPRP,-0.837
7,RRIRARPPRLPRPRPRPATDPRP,1.53
8,RRIRKRPPRLPRPRPRPHGQPRP,-0.0371
9,RRIRHRPPRLPRPRPRPYYHPRP,-0.339
10,RRIRMRPPRLPRPRPRPNSPPRP,0.147
11,RRIRVRPPRLPRPRPRPLRCPRP,0.0372
12,RRIRERPPRLPRPRPRPTYAPRP,-0.0017
13,RRIRYRPPRLPRPRPRPHSVPRP,-0.07
14,RRIRERPPRLPRPRPRPLCDPRP,1.81
15,RRIRTRPPRLPRPRPRPINVPRP,-0.509
16,RRIRPRPPRLPRPRPRPGWEPRP,0.462
17,RRIRFRPPRLPRPRPRPLTSPRP,-0.0399
18,RRIRARPPRLPRPRPRPKRLPRP,0.656
19,RRIRRRPPRLPRPRPRPRGQPRP,1.11
20,RRIRRRPPRLPRPRPRPDCYPRP,-0.236
21,RRIRVRPPRLPRPRPRPWNKPRP,-0.635
22,RRIRRRPPRLPRPRPRPMWLPRP,0.105
23,RRIRHRPPRLPRPRPRPYMGPRP,-0.201
24,RRIRQRPPRLPRPRPRPNDYPRP,-0.179
25,RRIRERPPRLPRPRPRPYDAPRP,0.835

row,Sequence,shrunken log2 fold change
1,RRIRPRPPRLPRPRPRPWCYPRP,-0.143
2,RRIRDRPPRLPRPRPRPDPPPRP,0.627
3,RRIRTRPPRLPRPRPRPAENPRP,0.0214
4,RRIRKRPPRLPRPRPRPYAAPRP,-0.102
5,RRIRVRPPRLPRPRPRPLEPPRP,0.236
6,RRIRRRPPRLPRPRPRPRAPPRP,1.02
7,RRIRLRPPRLPRPRPRPKSPPRP,0.0414
8,RRIRCRPPRLPRPRPRPPAPPRP,1.11
9,RRIRWRPPRLPRPRPRPIKIPRP,-0.0625
10,RRIRARPPRLPRPRPRPQEVPRP,-0.0933
11,RRIRVRPPRLPRPRPRPWYLPRP,-0.425
12,RRIRYRPPRLPRPRPRPPKAPRP,-0.0334
13,RRIRMRPPRLPRPRPRPAACPRP,0.763
14,RRIRRRPPRLPRPRPRPNSSPRP,0.105
15,RRIRFRPPRLPRPRPRPIIHPRP,-0.795
16,RRIRIRPPRLPRPRPRPSTAPRP,-0.263
17,RRIRWRPPRLPRPRPRPCGAPRP,0.525
18,RRIRTRPPRLPRPRPRPMGDPRP,-0.0264
19,RRIRKRPPRLPRPRPRPRCKPRP,0.00437
20,RRIRYRPPRLPRPRPRPSKAPRP,-0.223
21,RRIRPRPPRLPRPRPRPENLPRP,-0.278
22,RRIRHRPPRLPRPRPRPPWIPRP,0.0139
23,RRIRVRPPRLPRPRPRPHNAPRP,-0.164
24,RRIRGRPPRLPRPRPRPLFWPRP,0.544
25,RRIRARPPRLPRPRPRPMHYPRP,-0.0399

row,Sequence,shrunken log2 fold change
1,RRIRERPPRLPRPRPRPFKFPRP,-0.0774
2,RRIRIRPPRLPRPRPRPSRVPRP,-0.0608
3,RRIRHRPPRLPRPRPRPGYKPRP,-0.00663
4,RRIRYRPPRLPRPRPRPYTCPRP,-0.00145
5,RRIRARPPRLPRPRPRPPSWPRP,0.736
6,RRIRARPPRLPRPRPRPQDHPRP,-0.208
7,RRIRGRPPRLPRPRPRPNFQPRP,0.122
8,RRIRSRPPRLPRPRPRPYQWPRP,0.0794
9,RRIRMRPPRLPRPRPRPSNPPRP,0.155
10,RRIRRRPPRLPRPRPRPITMPRP,-0.0568
11,RRIRGRPPRLPRPRPRPIFPPRP,0.553
12,RRIRNRPPRLPRPRPRPLSWPRP,0.235
13,RRIRLRPPRLPRPRPRPNHEPRP,-0.0961
14,RRIRVRPPRLPRPRPRPYLWPRP,-0.269
15,RRIRMRPPRLPRPRPRPKLHPRP,0.325
16,RRIRCRPPRLPRPRPRPWEFPRP,0.0363
17,RRIRKRPPRLPRPRPRPKKHPRP,0.276
18,RRIRHRPPRLPRPRPRPCRCPRP,-0.271
19,RRIRERPPRLPRPRPRPYQLPRP,-0.0108
20,RRIRLRPPRLPRPRPRPQRHPRP,-0.0803
21,RRIRSRPPRLPRPRPRPTDDPRP,-0.0687
22,RRIRWRPPRLPRPRPRPLDGPRP,0.15
23,RRIRIRPPRLPRPRPRPPWYPRP,-0.394
24,RRIRTRPPRLPRPRPRPDHHPRP,-0.474
25,RRIRERPPRLPRPRPRPRDVPRP,0.0772

# From the supplement of paper PMC9112550, “Optimization of the antimicrobial peptide Bac7 by deep mutational scanning” (BMC Biology, 2022)
